T1: SGK
T1 chain: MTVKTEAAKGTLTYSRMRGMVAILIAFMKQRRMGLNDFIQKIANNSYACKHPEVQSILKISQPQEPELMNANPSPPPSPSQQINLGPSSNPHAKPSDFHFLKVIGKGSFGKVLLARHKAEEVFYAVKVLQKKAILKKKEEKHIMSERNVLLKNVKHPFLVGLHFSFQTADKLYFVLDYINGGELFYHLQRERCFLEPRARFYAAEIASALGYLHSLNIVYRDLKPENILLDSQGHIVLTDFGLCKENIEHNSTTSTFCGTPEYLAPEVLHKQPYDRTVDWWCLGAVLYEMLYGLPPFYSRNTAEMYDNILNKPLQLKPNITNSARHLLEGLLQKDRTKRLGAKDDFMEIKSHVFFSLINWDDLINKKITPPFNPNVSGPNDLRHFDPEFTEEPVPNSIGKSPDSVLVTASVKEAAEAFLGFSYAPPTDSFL


Legend:
SGK = target: T1, SGK; assay: in vitro SGK kinase activity assay, 33P-ATP, Flash Plate
Src = target: T2, Src; assay: in vitro Src kinase activity assay, 33P-ATP, Flash Plate
T2 construct: Bought enzyme

Cdc2 = target: T3, Cdc2; assay: in vitro CDC2 kinase activity assay, 33P-ATP, Flash Plate
T3 construct: Bought enzyme

PKCδ = target: T4, PKCδ; assay: in vitro PKC delta kinase activity assay, 33P-ATP, Flash Plate
T4 construct: Bought enzyme; also called PKC delta

PKCγ = target: T5, PKCγ; assay: in vitro PKC gamma kinase activity assay, 33P-ATP, Flash Plate
T5 construct: Bought enzyme; also called PKC gamma

PKA = target: T6, PKA; assay: in vitro PKA kinase activity assay, 33P-ATP, kemptide substrate, Flash Plate
T6 construct: Bought enzyme

[1] = target: T7, Akt wild-type recombinant protein (Akt1) (Homo sapiens (Human), UniProt P31749 1-480, as many as five phosphorylations seen by ESI-MS (positions not stated)); assay: in vitro Akt1 kinase activity assay, biotinylated Bad-derived peptide substrate
T7 construct: also called Akt1 wild type
T7 sequence (P31749 other isoform, or with tags, fused parts or gaps limits assumed): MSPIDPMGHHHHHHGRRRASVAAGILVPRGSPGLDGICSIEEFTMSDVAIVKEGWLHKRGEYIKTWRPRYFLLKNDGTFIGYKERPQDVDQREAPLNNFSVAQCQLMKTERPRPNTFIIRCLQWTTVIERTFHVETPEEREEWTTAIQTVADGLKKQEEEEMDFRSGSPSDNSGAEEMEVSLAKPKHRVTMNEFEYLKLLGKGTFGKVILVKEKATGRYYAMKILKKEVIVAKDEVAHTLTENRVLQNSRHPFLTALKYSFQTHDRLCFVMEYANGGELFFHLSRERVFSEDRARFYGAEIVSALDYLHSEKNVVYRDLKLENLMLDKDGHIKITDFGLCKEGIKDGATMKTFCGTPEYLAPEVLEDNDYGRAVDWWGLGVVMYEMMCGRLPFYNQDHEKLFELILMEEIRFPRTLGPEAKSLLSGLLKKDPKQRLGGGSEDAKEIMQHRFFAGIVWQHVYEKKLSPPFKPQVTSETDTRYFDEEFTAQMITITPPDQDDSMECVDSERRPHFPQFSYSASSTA

Row | Ki (SGK) [µM] | Ki (Src) [µM] | Ki (Cdc2) [µM] | Ki (PKCδ) [µM] | Ki (PKCγ) [µM] | Ki (PKA) [µM] | Ki [1] [µM] | Binder
1 | 1 | > 33 | > 33 | > 42 | > 30 | > 34 | 1.11 | VELDPEFEPRARERTYSFGH [Peptide 1]
2 | 12.5 | > 33 | > 33 | > 42 | > 30 | > 34 | 0.095 | VELDPEFEPRARERAYAFGH (Made from peptide 2 by changing Thr at position 15 to Ala) [Peptide 4]

Reference: patent US20040038883A1 (published 2004)
